The text below walks through data of paper PMC10509353, “Increased intracellular persulfide levels attenuate HlyU-mediated hemolysin transcriptional activation in Vibrio cholerae” (The Journal of Biological Chemistry, 2023).

Data set [1] deals with the molecule itself. As to the kind of experiment: SEC; calibrated Superdex 75 gel-filtration column; 25 mM MES, 0.2 M NaCl, 2 mM EDTA, 2 mM TCEP, 5% glycerol, pH 6, 25 °C.
Data set [2] deals with T1, HlyU (VcHlyU), WT (Vibrio cholerae, UniProt P52695 1-108).
T1 sequence: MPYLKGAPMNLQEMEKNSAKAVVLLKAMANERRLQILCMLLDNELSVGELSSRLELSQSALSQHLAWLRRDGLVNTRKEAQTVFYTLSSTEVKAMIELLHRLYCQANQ
As to the kind of experiment: fluorescence anisotropy; HlyU pretreated with 5-fold H2O2; text: no change in affinity; n=3; Table 1: 25 mM Hepes pH 7, 100 mM NaCl, 1 mM EDTA, 25 °C; Methods: 10 mM Hepes pH 7.0, 0.1 M NaCl, with or without 2 mM TCEP, 10 nM DNA. Conditions: protein: recombinant; chain copies: 2; label: 5'-fluorescein on strand 1; blunt.

The target of data set [3] is T1, HlyU (VcHlyU), WT. As to the kind of experiment: fluorescence anisotropy; reduced HlyU (TCEP), 100 mM NaCl; n=4; Table 1: 25 mM Hepes pH 7, 100 mM NaCl, 1 mM EDTA, 25 °C; Methods: 10 mM Hepes pH 7.0, 0.1 M NaCl, with or without 2 mM TCEP, 10 nM DNA. Conditions: protein: recombinant; chain copies: 2; label: 5'-fluorescein on strand 1; blunt.

B1: Vibrio cholerae HlyU (natural protein)
chain: MPYLKGAPMNLQEMEKNSAKAVVLLKAMANERRLQILCMLLDNELSVGELSSRLELSQSALSQHLAWLRRDGLVNTRKEAQTVFYTLSSTEVKAMIELLHRLYCQANQ
notes: also called VcHlyU; WT HlyU
Regarding B1, the “stoichiometry N” value in data set [1] came out at 2.

B2: hlyO operator (hlyA promoter) (dsDNA)
DNA 1: TATAAATTAATTCAGACTAAATTAGTTCAAA
DNA 2: TTTGAACTAATTTAGTCTGAATTAATTTATA
For B2, the Ka in the data set with HlyU (VcHlyU), WT [2] is 0.19 ± 0.03 10^9 M^-1; with HlyU (VcHlyU), WT [3], 0.4 ± 0.08 10^9 M^-1.
